Measured values: PMC6881179

Key:
Assay in all cases: SPR
[1] = molecular target: BES1 transferrin receptor (glycosylated heterodimer of BES1 ESAG6 and BES1 ESAG7) (Trypanosoma brucei) (UniProt Q8WPU1)
[2] = molecular target: BES17e6BES1e7 chimera (BES17 ESAG6 with BES1 ESAG7) (Trypanosoma brucei) (UniProt Q8WPU1)
[3] = molecular target: BES17 transferrin receptor (glycosylated heterodimer of BES17 ESAG6 and BES17 ESAG7) (Trypanosoma brucei) (UniProt Q8WPU1)
[4] = molecular target: BES1e6BES17e7 chimera (BES1 ESAG6 with BES17 ESAG7) (Trypanosoma brucei) (UniProt Q8WPU1)

cow transferrin (from UniProt Q29443 20-704) (ligand)
Kd [1]: 80.1 nM

human holo-transferrin (from UniProt P02787 20-698) (ligand)
Kd [2]: 353 nM
Kd [3]: 13.1 nM
Kd [4]: 243 nM
